Assay results published in patent US20240261333A1 (published 2024).

How the values were obtained:
Test in all cases: co-IP, anti-FLAG, lysate of cells with C-FLAG B3GNT2; mass spectrometry
KRT6B = target: T1, KRT6B (human, UniProt P04259 2-564)
T1 construct: also called NP_00546.2
T1 sequence (looked up): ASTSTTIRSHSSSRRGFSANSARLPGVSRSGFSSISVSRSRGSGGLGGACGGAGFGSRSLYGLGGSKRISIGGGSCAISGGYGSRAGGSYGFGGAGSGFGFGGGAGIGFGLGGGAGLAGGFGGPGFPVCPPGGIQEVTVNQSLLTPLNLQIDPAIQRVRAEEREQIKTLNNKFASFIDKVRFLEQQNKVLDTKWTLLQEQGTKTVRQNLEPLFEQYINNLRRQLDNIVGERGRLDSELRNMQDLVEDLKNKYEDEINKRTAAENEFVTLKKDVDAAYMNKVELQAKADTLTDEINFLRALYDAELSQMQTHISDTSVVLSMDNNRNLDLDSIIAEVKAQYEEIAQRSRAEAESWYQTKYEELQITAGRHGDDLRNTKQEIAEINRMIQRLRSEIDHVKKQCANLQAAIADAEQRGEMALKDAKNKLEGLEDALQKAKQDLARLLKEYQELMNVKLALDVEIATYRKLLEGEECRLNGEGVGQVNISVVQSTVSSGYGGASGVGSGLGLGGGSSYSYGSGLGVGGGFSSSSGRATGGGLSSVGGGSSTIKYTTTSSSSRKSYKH

GGCT = target: T2, GGCT (human, UniProt O75223 1-188)
T2 construct: also called NP_076956.1
T2 sequence (looked up): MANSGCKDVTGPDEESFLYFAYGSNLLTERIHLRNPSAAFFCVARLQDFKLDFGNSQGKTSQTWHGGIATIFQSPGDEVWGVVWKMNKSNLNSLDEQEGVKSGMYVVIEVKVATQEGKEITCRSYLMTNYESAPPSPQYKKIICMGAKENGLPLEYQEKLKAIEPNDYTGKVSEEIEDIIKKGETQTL

RPS3 = RPS3 (human, UniProt P23396 2-243)
LMNA = target: T3, LMNA (human, UniProt P02545 1-646, limits assumed)
T3 construct: also called NP_733821.1
T3 sequence (looked up): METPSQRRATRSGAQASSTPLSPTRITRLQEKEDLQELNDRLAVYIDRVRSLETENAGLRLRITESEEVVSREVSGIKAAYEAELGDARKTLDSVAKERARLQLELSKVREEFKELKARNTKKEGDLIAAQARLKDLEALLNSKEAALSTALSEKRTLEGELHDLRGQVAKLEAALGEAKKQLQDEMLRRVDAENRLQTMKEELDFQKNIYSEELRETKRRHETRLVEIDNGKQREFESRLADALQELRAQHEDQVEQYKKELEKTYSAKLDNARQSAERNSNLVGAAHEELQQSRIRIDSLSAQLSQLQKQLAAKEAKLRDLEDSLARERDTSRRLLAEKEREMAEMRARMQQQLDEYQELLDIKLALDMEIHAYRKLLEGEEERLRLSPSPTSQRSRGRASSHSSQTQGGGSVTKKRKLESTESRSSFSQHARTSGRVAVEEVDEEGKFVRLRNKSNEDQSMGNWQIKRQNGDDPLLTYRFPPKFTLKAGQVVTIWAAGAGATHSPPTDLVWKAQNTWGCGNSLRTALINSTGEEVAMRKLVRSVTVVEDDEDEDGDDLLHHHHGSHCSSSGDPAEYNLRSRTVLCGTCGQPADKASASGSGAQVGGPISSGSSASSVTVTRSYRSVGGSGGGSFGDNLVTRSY

B1: C-terminal FLAG tagged B3GNT2 (enzyme, human, UniProt Q9NY97 1-397, looked up)
chain: MSVGRRRIKLLGILMMANVFIYFIMEVSKSSSQEKNGKGEVIIPKEKFWKISTPPEAYWNREQEKLNRQYNPILSMLTNQTGEAGRLSNISHLNYCEPDLRVTSVVTGFNNLPDRFKDFLLYLRCRNYSLLIDQPDKCAKKPFLLLAIKSLTPHFARRQAIRESWGQESNAGNQTVVRVFLLGQTPPEDNHPDLSDMLKFESEKHQDILMWNYRDTFFNLSLKEVLFLRWVSTSCPDTEFVFKGDDDVFVNTHHILNYLNSLSKTKAKDLFIGDVIHNAGPHRDKKLKYYIPEVVYSGLYPPYAGGGGFLYSGHLALRLYHITDQVHLYPIDDVYTGMCLQKLGLVPEKHKGFRTFDIEEKNKNNICSYVDLMLVHSRKPQEMIDIWSQLQSAHLKC
notes: Overexpressed in cells and pulled down from the lysate with mouse anti-FLAG antibody; also called C-FLAG B3GNT2; C-term flag; not shown: C-terminal FLAG tag
co-IP mass spectrometry count (KRT6B): 331
co-IP mass spectrometry count (GGCT): 0
co-IP mass spectrometry count (RPS3): 23
co-IP mass spectrometry count (LMNA): 22
